The source of these data is paper PMC6080606, “Transbilayer phospholipid movement facilitates the translocation of annexin across membranes” (Journal of Cell Science, 2018).

Assay [1] deals with T1, recombinant annexin A5, P08758.
T1 chain: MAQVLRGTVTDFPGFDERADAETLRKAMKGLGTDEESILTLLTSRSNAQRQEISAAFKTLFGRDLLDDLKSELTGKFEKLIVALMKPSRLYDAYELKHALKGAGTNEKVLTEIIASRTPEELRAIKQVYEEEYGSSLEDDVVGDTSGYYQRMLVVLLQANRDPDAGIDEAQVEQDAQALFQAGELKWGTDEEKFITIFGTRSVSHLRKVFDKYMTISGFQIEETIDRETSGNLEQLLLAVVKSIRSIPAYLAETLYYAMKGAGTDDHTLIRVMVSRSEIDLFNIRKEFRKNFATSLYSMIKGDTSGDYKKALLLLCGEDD
As to the kind of experiment: MST; Nanotemper Monolith NT.115; constant annexin A5-Alexa Fluor 647 (20 µg/ml) mixed with unlabelled recombinant annexin A5 from 7×10^−6 µg/ml to 100 µg/ml, 1 h at room temperature, with 5 µM Ca2+ (CaCl2); dimerisation (dimer to monomers), used as positive control. Conditions: remark: other sources report otherwise.

The target of a further assay is T2, recombinant annexin A5 (UniProt P08758 1-320, Alexa Fluor 647 conjugated (the labelled copy held at a constant 20 µg/ml; position not stated); the titrated copy of the dimerisation assay is unlabelled).
T2 construct: annexin A5 (annexin V), recombinant; The products were matched from the reagents list: the Alexa Fluor 647 conjugate is likely Biolegend 640912 and the unlabelled protein likely Novus NBP1-30265; Labelled and unlabelled copies are written as one molecule for the self-association; also called annexin V; annexin A5 conjugated to Alexa Fluor 647; source: recombinant, bought (reagents list: annexin-V …)
T2 sequence (looked up): T1 chain
Briefly: MST; Nanotemper Monolith NT.115; constant annexin A5-Alexa Fluor 647 (20 µg/ml) mixed with cinnamycin from 7×10^−8 mM to 1 mM, 1 h at room temperature. The note with it: both partners purified.

B1: recombinant annexin A5, P08758 1-320 (natural protein)
chain: T1 chain
modifications: here or on the partner: Alexa Fluor 647 conjugated (the labelled copy held at a constant 20 µg/ml; position not stated); the titrated copy of the dimerisation assay is unlabelled; Alexa Fluor 647 conjugated (the labelled copy held at a constant 20 µg/ml; position not stated); the titrated copy of the dimerisation assay is unlabelled
With B1, in assay [1], the Kd is 1 µM.

B2: cinnamycin (peptide, UniProt P29827 60-78, looked up)
peptide: CRQSCSFGPFTFVCDGNTK
notes: cinnamycin, a 19-amino-acid lantibiotic (the mature peptide cut from its precursor); source: bought: Santa Cruz Biotechnology (sc-391464)
For B2, the Kd with recombinant annexin A5 came out at 614 µM.
